Tests used:
Abeta1-42 [1] = assay: intracellular flow cytometry of THP-1 cells, isotype control stain (background level)
Abeta1-42 [2] = assay: intracellular flow cytometry of monocytes/macrophages from patient and control, isotype control stain (background level)

Abeta1-42, sequence (peptide, as listed by the source): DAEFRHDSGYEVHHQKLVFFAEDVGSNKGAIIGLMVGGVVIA

isotype control antibodies (Mouse IgG1 and IgG2b) (antibody)
median Abeta FITC-A signal (Abeta1-42 [1]): 102
median Abeta FITC-A signal (Abeta1-42 [2]): 102

Source: US20140051084A1
